The record followed here is the Immune Epitope Database (IEDB).

By IC50 is commonly meant the midpoint of a concentration-inhibition curve.

This experiment addresses HLA-A*02:01. In words: IEDB peptide-MHC binding, purified MHC/competitive/radioactivity; ≥ and ≤ were set here for values at or beyond the usual limits of such assays. As to conditions: source organism: Human alphaherpesvirus 1.
As to AIVVVIILV, the IC50 was 6910 nM.

Turning to ALAAIENYV, the IC50 worked out at 2.7 nM.

Consider ALAFDSTRV, for which the IC50 is 649 nM.

As for ALAPVFAFL, the IC50 turned out to be 2.2 nM.

Take ALATALTEA: the IC50 was 10 nM.

Take ALAVFQPAV: the IC50 turned out to be 1.6 nM.

Consider ALDHYDCLI, for which the IC50 stood at 180 nM.

Consider ALGERLDAV, for which the IC50 came to 25 nM.

Regarding ALGLSAFGV, the half-maximal inhibitory concentration (IC50) turned out to be 9.6 nM.

On to ALGMRGLVL, for which the 50% inhibitory concentration (IC50) amounted to 491 nM.

ALHQCFTEL: the IC50 turned out to be 831 nM.

As to ALHTALATV, the IC50 is 16 nM.

ALLDRDCRV: the IC50 turned out to be 5.6 nM.

On to ALLEACLRV, for which the IC50 was found to be 6.6 nM.

With ALLGAWPAV, the IC50 amounted to 2.5 nM.

In the case of ALLPAPITL, the half-maximal inhibitory concentration (IC50) was found to be 132 nM.

Regarding ALLQQTWTL, the IC50 was determined as 0.39 nM.

ALMAGYFKI: the IC50 came to 49 nM.

Consider ALMGAVTSL, for which the IC50 came out at 4.2 nM.

Take ALMLRLLRI: the IC50 came out at 46 nM.

With ALMRGRPGL, the IC50 was 1680 nM.

Turning to ALPDTVAPV, the IC50 was found to be 9.1 nM.

On to ALQTDNYTL, for which the IC50 came to 29 nM.

ALSALLTKL: the IC50 came to 313 nM.

In the case of ALSPALTAL, the IC50 was determined as 194 nM.

As to ALSPVLPPM, the IC50 is 30 nM.

For ALVACVAAL, the IC50 turned out to be 55 nM.

For the sequence ALVAWLTHA, the IC50 was found to be 15 nM.

As for ALVELNSGV, the IC50 was 9.3 nM.

In the case of ALYACVLAA, the IC50 is 5.6 nM.

With ALYYSVENV, the IC50 stood at 38 nM.

Turning to AMDLVLAAV, the IC50 was 4.4 nM.

As for AMDSDLGSL, the IC50 worked out at 978 nM.

Take AMHARMAAV: the IC50 is 19 nM.

For AMNRRIMNV, the concentration for half-maximal inhibition (IC50) came out at 1190 nM.

For the sequence AVFGVVAIV, the half-inhibitory concentration (IC50) stood at 250 nM.

On to AVGELLAPV, for which the IC50 amounted to 84 nM.

For the sequence AVHDPERPL, the IC50 came to 3940 nM.

Consider AVLADFSLV, for which the IC50 was determined as 134 nM.

For AVLAFVALI, the IC50 was 107 nM.

On to AVVPIIPFL, for which the concentration for half-maximal inhibition (IC50) came to 1030 nM.

As to AVWISLAQV, the IC50 was determined as 259 nM.

Regarding CLAEYCTSL, the IC50 amounted to 186 nM.

Consider CLLCNLLLV, for which the IC50 stood at 60 nM.

As to CLSDLLGFL, the IC50 stood at 88 nM.

Take CMFGVVSPA: the IC50 stood at 9.5 nM.

On to DLAEWVPRV, for which the half-inhibitory concentration (IC50) was 4.3 nM.

In the case of DLWNVMYTL, the IC50 came to 333 nM.

As for DMTPAELEV, the IC50 was 669 nM.

Turning to ELACLLMYL, the IC50 was determined as 54 nM.

In the case of ELFGEAFEV, the IC50 amounted to 90 nM.

In the case of EMADTFLDT, the IC50 worked out at 1770 nM.

On to EMIRYMALV, for which the IC50 came out at 179 nM.

As to FAASANFFL, the IC50 was found to be 142 nM.

For FADSDGHYV, the IC50 worked out at 142 nM.

With FADTVVACV, the 50% inhibitory concentration (IC50) was determined as 59 nM.

For the sequence FAFRYVNRL, the IC50 worked out at 122 nM.

Consider FALDRPCLV, for which the IC50 is 76 nM.

Take FIAPLGFSL: the IC50 came to 6.5 nM.

With FILDALAQA, the IC50 worked out at 2.6 nM.

As to FILDNPGFV, the IC50 was 11 nM.

Regarding FIPQYLSAV, the IC50 came to 15 nM.

For the sequence FITTMAPRV, the half-inhibitory concentration (IC50) was 32 nM.

For FIYLALLEA, the half-inhibitory concentration (IC50) came to 11 nM.

Take FLAASALGV: the IC50 was determined as 7.4 nM.

In the case of FLADAVVRL, the IC50 amounted to 52 nM.

As for FLALVSNRV, the IC50 amounted to 7.4 nM.

With FLAPELVRA, the IC50 was found to be 12 nM.

As to FLARFWTRA, the IC50 came out at 48 nM.

As to FLASLVVLA, the half-maximal inhibitory concentration (IC50) worked out at 1.7 nM.

For FLCAKCLGA, the IC50 is 137 nM.

For the sequence FLCTADAAV, the IC50 was determined as 3 nM.

Take FLEDLSYPA: the IC50 stood at 0.64 nM.

For FLGAGALAV, the IC50 is 80 nM.

Regarding FLGDDPSPA, the concentration for half-maximal inhibition (IC50) worked out at 13 nM.

In the case of FLGGHVAVA, the IC50 was 65 nM.

As to FLGSCICFI, the IC50 was 12 nM.

Regarding FLHDVENFL, the IC50 is 12 nM.

For FLHLYLFLT, the IC50 is 564 nM.

Regarding FLLAKLTDI, the IC50 turned out to be 10 nM.

Regarding FLLKQFHAA, the IC50 is 53 nM.

For the sequence FLMAPDLYV, the IC50 was determined as 6.4 nM.

Turning to FLNQANCKI, the IC50 worked out at 458 nM.

Take FLQPTADLL: the IC50 amounted to 26 nM.

Turning to FLRSCHWVL, the IC50 is 582 nM.

As to FLRYHCPGL, the IC50 turned out to be 188 nM.

Consider FLSAKTLTV, for which the IC50 was 11 nM.

FLSDSEAEA: the IC50 worked out at 2.6 nM.

On to FLSRPINTI, for which the IC50 stood at 528 nM.

As for FLSTLPSDV, the IC50 came out at 76 nM.

Turning to FLTCTDRSV, the IC50 worked out at 83 nM.

With FLTPLSVTL, the half-maximal inhibitory concentration (IC50) stood at 4.7 nM.

In the case of FLTREILWA, the IC50 stood at 4.2 nM.

With FLTTPVPSL, the IC50 came to 111 nM.

For the sequence FLVPGTHVA, the IC50 was found to be 45 nM.

As for FLWSFLVLK, the IC50 turned out to be 1420 nM.

On to FLYLAFVAL, for which the IC50 was 1970 nM.

With FMAAKAAHL, the IC50 amounted to 276 nM.

With FMHIWLQAA, the IC50 came out at 81 nM.
